{
  "source": "the DeepSol protein solubility set",
  "data": [
    {"assay": "soluble on expression in E. coli; label from the status in PepcDB or PDB records", "values": [
      {"sequence": "MGSSHHHHHHGGTGENLYFQGGSGSRFYTAKEVREHAFHDDAYVSLNGKVLDLTPLIAAYKEMPKFAHLAKPLVQVAGTDISHWWDAEANDLRSCVDVNSGMRTYAMPLGRVPHMPTIYPDSNIDLNYDIPWWKDPQYIIGALTSRTRRIRIVNTLTGDETTLDVCAEETLEELLRERYLSINAHARSYTWVRLDPDPRELDMSRTLEDNGIHDEADSFEDLGLNADYYIPAIHLYYNDDLTEA", "soluble on expression in E. coli": "soluble"},
      {"sequence": "MGSSHHHHHHGKTIFVIVPTNEEQVAFLEALAKQDELNFDWQNPPTEPGQPVVILIPSDMVEWFLEMLKAKGIPFTVYVEEGGSENLYFQGGGGGGAASLGDFGQEYQAIMESAGKGFGMLYRDMTAPPASYQWECVEDLSLQYSVAYASLTEPYTVNVLTSMITVTRTESTPGVSYNLIGIACTYDGNCGDLKRGNLLTFSLRKDLIIIVTGSVLSNGITNFLPVSYYVVQLASSCSSANIANVTRPFSVGASSVWMQLWQ", "soluble on expression in E. coli": "not soluble"},
      {"sequence": "MGSSHHHHHHGKTIFVIVPTNEEQVAFLEALAKQDELNFDWQNPPTEPGQPVVILIPSDMVEWFLEMLKAKGIPFTVYVEEGGSENLYFQGGGGGGLASGSSSAEGGAKRFSRQQIIQHVKKSLLYTAFDVRWVPQTASFAVVGQYPNNHGALSVYQLHHGDVQPTVEVRLPHPLKCCTFGHNISFSSSGSGSGGNSSSITAANATMNQIATGDFAGSLQIFDLSRLGSTPPSAPNALSDVTAASVLHIPHAHESIINAIDGARYSGPPEVATGSRDGSVKVWDTRQSNKPVVSLNPADPARARDCWTVRLGNSFDPDERVVAAGYDNGDVKIFDLRTQKMLHEMHVNNGVCDLEFDRPDIPMNKLLVSSLEGRVRCYDMRTLHPKLGYAYVEERVSEGTVWCSRALPQNREIFLSGGGGELTLCLYKYPPERTLKDGDGLQRGVAGAVEELNKAKIGDQPINAMDWNRSKEGLAVCASFDQSIRVMLVTKLGLLS", "soluble on expression in E. coli": "not soluble"},
      {"sequence": "MGSSHHHHHHGMASMTGGQQMGRDLYDDDDKDPSSRSMAKLTKPKTEGILHKGQSLYEYLDARVLTSKPFGAAGDATTDDTEVIAASLNSQKAVTISDGVFSSSGINSNYCNLDGRGSGVLSHRSSTGNYLVFNNPRTGRLSNITVESNKATDTTQGQQVSLAGGSDVTVSDVNFSNVKGTGFSLIAYPNDAPPDGLMIKGIRGSYSGYATNKAAGCVLADSSVNSLIDNVIAKNYPQFGAVELKGTASYNIVSNVIGADCQHVTYNGTEGPIAPSNNLIKGVMANNPKYAAVVAGKGSTNLISDVLVDYSTSDARQAHGVTVEGSDNVINNVLMSGCDGTNSLGQRQTATIARFIGTANNNYASVFPSYSATGVITFESGSTRNFVEVKHPGRRNDLLSSASTIDGAATIDGTSNSNVVHAPALGQYIGSMSGRFEWRIKSMSLPSGVLTSADKYRMLGDGAVSLAVGGGTSSQVRLFTSDGTSRTVSLTNGNVRLSTSSTGYLQLGADAMTPDSTGTYALGSASRAWSGGFTQAAFTVTS", "soluble on expression in E. coli": "soluble"},
      {"sequence": "MGSSHHHHHHHSSGLVPRGSHMMRKRARIIYNPTSGKEQFKRELPDALIKLEKAGYETSAYATEKIGDATLEAERAMHENYDVLIAAGGDGTLNEVVNGIAEKPNRPKLGVIPMGTVNDFGRALHIPNDIMGALDVIIEGHSTKVDIGKMNNRYFINLAAGGQLTQVSYETPSKLKSIVGPFAYYIKGFEMLPQMKAVDLRIEYDGNVFQGEALLFFLGLTNSMAGFEKLVPDAKLDDGYFTLIIVEKSNLAELGHIMTLASRGEHTKHPKVIYEKAKAINISSFTDLQLNVDGEYGGKLPANFLNLERHIDVFAPNDIVNEELINNDHVDDNLIEE", "soluble on expression in E. coli": "soluble"},
      {"sequence": "MGSSHHHHHHSSGLVPRGSHMAKVNAFSKKIGWIEFITGPMFAGKTAELIRRLHRLEYADVKYLVFKPKIDTRSIRNIQSRTGTSLPSVEVESAPEILNYIMSNSFNDETKVIGIDEVQFFDDRICEVANILAENGFVVIISGLDKNFKGEPFGPIAKLFTYADKITKLTAICNECGAEATHSLRKIDGKHADYNDDIVKIGCQEFYSAVCRHHHKVPNRPYLNSNSEEFIKFFKNKKRNKNI", "soluble on expression in E. coli": "soluble"},
      {"sequence": "MGSSHHHHHHSSGLVPRGSHMDTKIGLEVHFQLNTGKLFCRCPVEQSSGELMRFSRKLHISASELGNIDAAASYESMRSRSFQYVVTDNSCLVEMDEEPPKTPDERAIATAISVSKALNCDIVDHITYMRKIVIDGSNTTGFQRTAIVGINGHIETSKGPVRISTVCLEEDAARKIEEIGNTVVYSLDRLGIPLIEISTEPDIVDEDHAVEVARSIGYIVISTGNARHAVDAVRQDVNFSMGYGRVEIKGVSKLTQIRDVIRYEKERQENLRAAVDLIKSRGGLDRVSFNLKDVSDLFAGTKSKIIRSGIESGGVYAGILKNMAGTLKNGKLRMGKEIADLVRSYGIKGVMHSDELPGYGLTQDEVEALYRYLGKGDNDAVLLIAINQSRVKMIENSIFDRIQKIISMDLSETRGPAGEETVFLRPMPGKDRMYPETDIPVIKVDSKLMEMSSSIKPRTYAEVVQDLVDRYGISKQNAEYIASEMVVDAFRNIAEFVEAREAARILTQIVPDLERRTKKIIDHDRIIELCRRSKDLHFDRYQLEMALEILYERDDVASVLGDSRLKELSREEIKSIIREILSSGRNATQNSIIALIKEKTERVFDPRVAMECFNEVKNKNNVF", "soluble on expression in E. coli": "soluble"},
      {"sequence": "MGSSHHHHHHSSGLVPRGSHMKLYIIGAGPGDPDLITVKGLKLLQQADVVLYADSLVSQDLIAKSKPGAEVLKTAGMHLEEMVGTMLDRMREGKMVVRVHTGDPAMYGAIMEQMVLLKREGVDIEIVPGVTSVFAAAAAAEAELTIPDLTQTVILTRAEGRTPVPEFEKLTDLAKHKCTIALFLSSTLTKKVMKEFINAGWSEDTPVVVVYKATWPDEKIVRTTVKDLDDAMRTNGIRKQAMILAGWALDPATPWLSGLGENPAIRAMFVAHLHQALNMAVEEAA", "soluble on expression in E. coli": "soluble"},
      {"sequence": "MGSSHHHHHHSSGLVPRGSHMNIGDTLNHSLLNHPLMLSGSTCKTLSDYTNQWLVLYFYPKDNTPGSSTEGLEFNLLLPQFEQINATVLGVSRDSVKSHDSFCAKQGFTFPLVSDSDAILCKAFDVIKEKTMYGRQVIGIERSTFLIGPTHRIVEAWRQVKVPGHAEEVLNKLKAHAEQ", "soluble on expression in E. coli": "soluble"},
      {"sequence": "MGSSHHHHHHSSGLVPRGSHMSQDVPGNLLDEIRILRSPKGYLYAGLPKFRALFGRDSIISSIQLIDLFPDIAQNTVIYLKDLQGRKLDYSIGEYPGKILHEYYDDEKIFLDRKRSIPWLNSRINYFSVDSTPLFILLIKNLFLRNLIDIEQFKDSIMMAMQFLIAYSSSDGLITYDKALLGAGLMSQSWRDGVGDIMDRLKSPVATVGVQGYFYESADFVLNLFPDSLIEESLPDLKDFYSKMREILENKFWLEETGYYGLAVDGDGVIEQAATSDPGHLIGSGILTRSRERDVIDRLFESDLLTDYGIRTLSAKDPRFDPKAYQRGSIWPQDNWIIADGIKRRGYLKEYRELRERLIAAYEYYGRMPEYFGVDRYGKIMDLSKLRIKPCYPQAWSTGAIINFVTFK", "soluble on expression in E. coli": "soluble"},
      {"sequence": "MGSSHHHHHHSSGLVPRGSHMSSENIPLRVQFKRMKAAEWARSDVILLESEIGFETDTGFARAGDGHNRFSDLGYISPLDYNLLTNKPNIDGLATKVETAQKLQQKADKETVYTKAESKQELDKKLNLKGGVMTGQLKFKPAATVAYSSSTGGAVNIDLSSTRGAGVVVYSDNDTSDGPLMSLRTGKETFNQSALFVDYKGTTNAVNIAMRQPTTPNFSSALNITSGNENGSAMQLRGSEKALGTLKITHENPSIGADYDKNAAALSIDIVKKTNGAGTAAQGIYINSTSGTTGKLLRIRNLSDDKFYVKSDGGFYAKETSQIDGNLKLKDPTANDHAATKAYVDKAISELKKLILKK", "soluble on expression in E. coli": "soluble"},
      {"sequence": "MGSSHHHHHHSSGLVPRGSHMSSTMSADQSNRARPVIRIKENPEDFTVEEVADIPKSDNGKYTIIKAEIIDWDTNRIVEEIASALRISRKRISYAGTKDKRARKIQYFCINAPVDVSVLAFKGFRIIDRFRSDHYLRLGDLTANHFRIRFQGASDDYIEQRYEKMMECGGFPNYFGQQRFGSRRRNTHDVGRLIVTGRYEDAVRLYLYDERYDIEDYRREFIETLDYNRALEKFPRTLRFERSIIGYYAQHHTFKGAFDALPKNLSIMFVHAYQSYLFNRMLSLRIEKYGLNRAIPGDTAFPVDRYFNPDKSRPVEVNEVNVDTINQLIERDRLRVALPIIGSEVGPDQSDFGEIEKKILEEEHVDRSMFRNSEYPHLSSTGDRRIVSAKPVDFSVSNSVMDFTLGRGIYATTLISTFGDLVDFDAESDGF", "soluble on expression in E. coli": "soluble"},
      {"sequence": "MGSSHHHHHHSSGRENLYFQGHMSANVQEAANAAIEPASFVKVPMPEPPSSLQQLINDWQLIKHREGGYFKETDRSPYTMEVEKPVNGGSGNTEMVTRNQSTLIYYLLTPDSPIGKFHKNINRIIHILQRGKGQYVLVYPDGQVKSFKVGFDYKNGEVSQWVVPGGVFKASFLLPNEEFDNGFLISEVVVPGFDFEDHTFLKGEDELKHLVGPEKAAELAFLA", "soluble on expression in E. coli": "soluble"},
      {"sequence": "MGSSHHHHHHSSGRENLYFQGMKVVFLICNPAAGGGRAGKIWNRVEDLLKKHGIDHKFAFTERPGHAMEISKKAFKEGYRRIAAFGGDGTVNEMVNGIFLNGYDLREVVFGWIPFGSGKDWARTIGVPLEIEEAIKMLKDGKEFVQDLGVGEYEKASGEIEKRAFVNVAGLFFDGFVTYRTNLLKRKNRVSYFSRIFSSIIEYDPPTARIQIDEKVWEKRVFSMNVGICKYNGGGMNQLPHAVPDDGLLAVTVINDIGKLRILANLHRVFNGKLLEHPGVEGYQAKKVVVEFQRDEPVEFDGESFWAKKIFFSIIPGVIRVLVKK", "soluble on expression in E. coli": "soluble"},
      {"sequence": "MGSSHHHHHHSSGRENLYFQGMSVVFGVDIVGGSVHGKIKPKYAVVVLENGNEFEKIVSRSKLFRMVKKEKPDIIAVDNIYEVFKDKKDLIFFLKNAPSKTKLVQVTDRENSLPSLSKRFGLNINIRNPVDEARACAYLASFGMGSEISVFTDKTKITVSRNRSLGKGGWRQKKYGRKIHNAVREVYKEIRDRIVEAGFEFVEEVRKGYGGISRGVILVSAPRDRVPINSFKTRDVQVAVEAVEKEKIEFIPLRRTLRYLIVGIDPGATTAIAALDLRGELVDMKSRKGWSPAEVIEFISSLGKPVVVSTDKSSPPEFVSKIRASFNAVLYTPKEDMSVEKKRILTSKYSTSNDHERDALAAAIDAFNSYKSKLINVEKRLPAGIDSDRIKAEIIRGTPLKEVLSVTREESREEKVQAETVSREEILKRDRVIERLKEENRILSRKIKEMKDEIEKLRARVASISREEHEKIRKDTYVQNLEREIFDLRKKLKEKDEEIEQLKERIALLRKMKMLEFQGWKEVKVLRKFTKEEIERAEREMGISEGDIILIVDSSGGSASLAEMLCEKKVRAIIYGSEMSHLAAETFEKYNIPRISIDEVEIMMGDDIAVVNAEEFERVYAEKLEETKRRKIDFLEKLVEDYRRRRVV", "soluble on expression in E. coli": "soluble"},
      {"sequence": "MGSSHYHHHHSSGLVPRGSHMAEKPISPTKTRTRFEDIQAHYDVSDDFFALFQDPTRTYSCAYFEPPELTLEEAQYAKVDLNLDKLDLKPGMTLLDIGCGWGTTMRRAVERFDVNVIGLTLSKNQHARCEQVLASIDTNRSRQVLLQGWEDFAEPVDRIVSIEAFEHFGHENYDDFFKRCFNIMPADGRMTVQSSVSYHPYEMAARGKKLSFETARFIKFIVTEIFPGGRLPSTEMMVEHGEKAGFTVPEPLSLRPHYIKTLRIWGDTLQSNKDKAIEVTSEEVYNRYMKYLRGCEHYFTDEMLDCSLVTYLKPGAAA", "soluble on expression in E. coli": "soluble"}
    ]}
  ]
}
